Experimental data from patent publication US20260232732A1 (FUNDACI INSTITUT DE RECERCA CONTRA LA LEUC MIA JOSEP …, published 2026).
Each block holds one binder with its values, some of them ahead of it. Where no end group is shown, it is not given here. The star is where a group is joined. Biotin = O=C1N[C@H]2[C@H](CS[C@H]2CCCCC(=O)*)N1

Experiments:
[1] = molecular target: T1, biotin-peptide TSSMEDYVNF (human); test: ELISA biotin-peptide; scFv 5 ug/mL; repI
T1 peptide: Biotin-TSSMEDYVNF
Protocol: (§1) The peptides were synthesized naked or with a N-terminal Biotin modification with a purity of >98%. All four scFvs were verified by ELISA that can be detected with anti-His antibodies. ELISA was performed for scFv-peptide binding validation. Briefly, naked peptides were coated (50 μg/mL) in 0.58M carbonate-bicarbonate buffer pH9.5, 100 μL/well, 4° C. O/N. Then after blocking (3% BSA-PBS, 300 μL/well 37° C. 1.5 h) and washing (PBS+Tween-20 0.05% v/v (0.05% PBST), wells were incubated with each purified scFv antibody at concentration of 1 μg/mL in PBS at 37° C. 1 h. After washing (0.05% PBST), wells were incubated with secondary antibodies (goat anti-His IgG-HRP) in PBS, 37° C., 30 min. After washing, and incubation with TMB substrate, reactions were stopped with 2M HCl and reading was quantified at OD450.
(§2) ELISA with biotin-conjugated peptides (5 μg/mL) was performed very similar to described above with minor modifications.
(§3) A full curve ELISA was performed for each positive scFv/biotin-peptide pair in order to confirm previous results. Tables 15-17 show ELISA results of the dose-dependent full curve for each positive peptide with scFv “CCR9_HUM”, “Comp-2” and “Comp-3”, respectively.

[2] = molecular target: T2, biotin-peptide SSMEDYVNFN (human); test: ELISA biotin-peptide; scFv 10 ug/mL; repI
T2 peptide: Biotin-SSMEDYVNFN
Protocol: as §1, §2, §3

[3] = molecular target: T3, biotin-peptide SMEDYVNFNF (human); test: ELISA biotin-peptide; scFv 10 ug/mL; repI
T3 peptide: Biotin-SMEDYVNFNF
Protocol: as §1, §2, §3

[4] = molecular target: T1, biotin-peptide TSSMEDYVNF; test: ELISA biotin-peptide; scFv 10 ug/mL; repI
Protocol: as §1, §2, §3

[5] = molecular target: T4, biotin-peptide MEDYVNFNFT (human); test: ELISA biotin-peptide; scFv 10 ug/mL; repI
T4 peptide: Biotin-MEDYVNFNFT
Protocol: as §1, §2, §3

[6] = molecular target: T5, Peptide 4-BSA (SMEDYVNFNF-C conjugated to BSA) (human); test: ELISA; Ab 0.25 ug/mL; repI
T5 peptide: SMEDYVNFNFC(BSA)
Protocol: (§4) In brief, plates with each non-conjugated peptide (50 μg/mL) or BSA-conjugated peptide (5 μg/mL) were coated in 0.58M carbonate-bicarbonate buffer pH9.5, 100 μL/well, at 4° C. […] After washing, wells were incubated with the 3, 3′,5,5′-Tetramethylbenzidine (TMB) HRP substrate and reactions were stopped with 2M HCl and OD450 was recorded.

[7] = molecular target: T6, BSA (negative control coating) (bovine, UniProt P02769 25-607); test: ELISA; Ab 0.25 ug/mL; repI
T6 construct: also called Negative control BSA
T6 sequence (P02769 25-607 limits assumed): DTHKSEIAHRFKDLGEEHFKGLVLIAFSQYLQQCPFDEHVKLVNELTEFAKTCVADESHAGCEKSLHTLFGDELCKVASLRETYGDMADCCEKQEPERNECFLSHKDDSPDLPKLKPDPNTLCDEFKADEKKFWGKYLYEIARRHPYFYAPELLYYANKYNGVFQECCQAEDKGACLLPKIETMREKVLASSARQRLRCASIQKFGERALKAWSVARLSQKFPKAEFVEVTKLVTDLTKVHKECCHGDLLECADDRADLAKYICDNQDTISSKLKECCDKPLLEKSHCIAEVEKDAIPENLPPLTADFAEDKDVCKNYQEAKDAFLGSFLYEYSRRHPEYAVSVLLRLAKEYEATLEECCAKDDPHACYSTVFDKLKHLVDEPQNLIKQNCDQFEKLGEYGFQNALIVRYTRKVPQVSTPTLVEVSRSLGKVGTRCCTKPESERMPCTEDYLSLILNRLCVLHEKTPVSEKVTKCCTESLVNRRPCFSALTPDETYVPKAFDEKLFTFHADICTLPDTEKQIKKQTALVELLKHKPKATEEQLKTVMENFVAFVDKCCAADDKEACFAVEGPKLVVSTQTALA
Protocol: as §4

[8] = molecular target: T7, Peptide 2, non-conjugated (GSESTSSMED-C) (human); test: ELISA; Ab 0.25 ug/mL; repI
T7 construct: With the extra C-terminal Cys
T7 peptide: GSESTSSMEDC
Protocol: as §4

[9] = molecular target: T8, Peptide 4, non-conjugated (SMEDYVNFNF-C) (human); test: ELISA; Ab 0.25 ug/mL; repI
T8 construct: With the extra C-terminal Cys
T8 peptide: SMEDYVNFNFC
Protocol: as §4

[10] = molecular target: T9, Peptide 3, non-conjugated (SSMEDYVNFN-C) (human); test: ELISA; Ab 0.25 ug/mL; repI
T9 construct: With the extra C-terminal Cys
T9 peptide: SSMEDYVNFNC
Protocol: as §4

[11] = molecular target: T10, Peptide 1-BSA (MADDYGSEST-C conjugated to BSA) (human); test: ELISA; Ab 0.25 ug/mL; repI
T10 peptide: MADDYGSESTC(BSA)
Protocol: as §4

[12] = molecular target: T11, antigen peptide-BSA (immunisation peptide #1 MADDYGSESTSSMEDYVNFNF-C conjugated to BSA) (human, extra C-terminal Cys conjugated to BSA); test: ELISA; Ab 0.25 ug/mL; repI
T11 construct: also called Positive control antigen peptide-BSA; MADDY peptide
T11 peptide: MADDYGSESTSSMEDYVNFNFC
Protocol: as §4

[13] = molecular target: T12, Peptide 3-BSA (SSMEDYVNFN-C conjugated to BSA) (human); test: ELISA; Ab 0.25 ug/mL; repI
T12 peptide: SSMEDYVNFNC(BSA)
Protocol: as §4

[14] = molecular target: T13, Peptide 1, non-conjugated (MADDYGSEST-C) (human); test: ELISA; Ab 0.25 ug/mL; repI
T13 construct: With the extra C-terminal Cys
T13 peptide: MADDYGSESTC
Protocol: as §4

[15] = molecular target: T14, Peptide 2-BSA (GSESTSSMED-C conjugated to BSA) (human); test: ELISA; Ab 0.25 ug/mL; repI
T14 peptide: GSESTSSMEDC(BSA)
Protocol: as §4

[16] = molecular target: T5, Peptide 4-BSA (SMEDYVNFNF-C conjugated …); test: ELISA; Ab 0.5 ug/mL; repII
Protocol: as §4

[17] = molecular target: T6, BSA (negative control coating); test: ELISA; Ab 0.5 ug/mL; repII
Protocol: as §4

[18] = molecular target: T7, Peptide 2, non-conjugated (GSESTSSMED-C); test: ELISA; Ab 0.5 ug/mL; repII
Protocol: as §4

[19] = molecular target: T8, Peptide 4, non-conjugated (SMEDYVNFNF-C); test: ELISA; Ab 0.5 ug/mL; repII
Protocol: as §4

[20] = molecular target: T9, Peptide 3, non-conjugated (SSMEDYVNFN-C); test: ELISA; Ab 0.5 ug/mL; repII
Protocol: as §4

[21] = molecular target: T10, Peptide 1-BSA (MADDYGSEST-C conjugated …); test: ELISA; Ab 0.5 ug/mL; repII
Protocol: as §4

[22] = molecular target: T11, antigen peptide-BSA (immunisation …); test: ELISA; Ab 0.5 ug/mL; repII
Protocol: as §4

[23] = molecular target: T12, Peptide 3-BSA (SSMEDYVNFN-C conjugated …); test: ELISA; Ab 0.5 ug/mL; repII
Protocol: as §4

[24] = molecular target: T13, Peptide 1, non-conjugated (MADDYGSEST-C); test: ELISA; Ab 0.5 ug/mL; repII
Protocol: as §4

[25] = molecular target: T14, Peptide 2-BSA (GSESTSSMED-C conjugated …); test: ELISA; Ab 0.5 ug/mL; repII
Protocol: as §4

OD450 [1]: 1.47 OD | OD450 [2]: 1.9 OD | OD450 [3]: 1.79 OD | OD450 [4]: 1.46 OD | OD450 [5]: 1.72 OD
B1: CCR9_HUM2 scFv (humanized anti-CCR9 scFv, SEQ ID NO: 17 with C-terminal 6xHis tag) (scFv)
scFv: QVQLVQSGAEVKKPGASVKVSCTASGYSFTDYIIYWVKQAHGQSLEWMGYIDPNNYNTRYSQKFQGKVTITVDKSSTSAYMELNSLTSDDTAVYYCARDVYWGQGTTVTVSSGGGGSGGGGSGGGGSGGGGSDVVMTQTPLSLSVTPGQPASISCRSSQSLVHSNGKTYLQWYLQKPGQSPKLLIYKVSNRFSGVPDRFSGSGSGTDFTLKISRVEAEDVGVYFCAQSTHVWTFGGGTKVEIKRAHHHHHH

OD450 [6]: 2.46 OD | OD450 [7]: 0.01 OD | OD450 [8]: 0.02 OD | OD450 [9]: 2.09 OD | OD450 [10]: 1.89 OD | OD450 [11]: 0.02 OD | OD450 [12]: 2.29 OD | OD450 [13]: 1.95 OD | OD450 [14]: 0.02 OD | OD450 [15]: 0.02 OD | OD450 [16]: 2.65 OD | OD450 [17]: 0.02 OD | OD450 [18]: 0.02 OD | OD450 [19]: 2.37 OD | OD450 [20]: 1.83 OD | OD450 [21]: 0.02 OD | OD450 [22]: 2.57 OD | OD450 [23]: 2.06 OD | OD450 [24]: 0.02 OD | OD450 [25]: 0.02 OD
B2: anti-CCR9 antibody clone 115 (murine, from hybridoma #115) (antibody, V domains shown)
VH: QVQLKQSGPELVKPGTSVRVSCTASGYSFTDYIIYWVKQSHGRSLEWIGYIDPNNYNTRYSQKFKGKATLTVDKSSTSAFMHLNSLTSDDSAVYYCARDVYWGQGTTLTVSS
VL: DVVMTQTPLSLTVSLGDQASISCRSSQSLVHSNGKTYLQWYLQKPGQSPKLLIYKVSNRFSGVPDRFSGSGSGTDFTLKISRVEAEDLGVYFCAQSTHVWTFGGGTKLEIKR
notes: Mouse IgG1
